Reference: patent US20240148898A1

What was measured:
[1] = target: recombinant PD-L1 protein (PD-1 ligand), species not stated; test: MST
[2] = target: recombinant PD-L1 protein (PD-1 ligand), species not stated; test: ELISA

Sequence of recombinant PD-L1 protein (PD-1 ligand), species not stated (Q9NZQ7 whole entry): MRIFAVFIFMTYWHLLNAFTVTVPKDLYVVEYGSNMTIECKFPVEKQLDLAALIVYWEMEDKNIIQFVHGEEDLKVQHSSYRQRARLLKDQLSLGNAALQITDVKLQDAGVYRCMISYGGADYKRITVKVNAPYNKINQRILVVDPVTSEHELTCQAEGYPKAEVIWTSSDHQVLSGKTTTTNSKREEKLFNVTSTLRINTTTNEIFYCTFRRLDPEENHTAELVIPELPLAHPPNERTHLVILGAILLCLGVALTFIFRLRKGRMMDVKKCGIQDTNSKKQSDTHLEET

| Binder | Kd [1] | Kd [2] |
| --- | --- | --- |
| huHF-TPP1 (CD loop) (designed binder, not shown: small tags and cut ends) MTTASTSQVRQNYHQDSEAAINRQINLELYASYVYLSMSYYFDRDDVALKNFAKYFLHQSHEEREHAEKLMKLQNQRGGRIFLQDIKKPDCDDWESGLNAMECALHLEKNVNQSLLELHKLATDKNDSGQYASYHCWCWRDPGRSGGSKPHLCDFIETHYLNEQVKAIKELGDHVTNLRKMGAPESGLAEYLFDKHTLGDSDNES | 115 nM | – |
| huHF-αPD-L1 HCDR3 (CD loop), Examples 1-6 (designed binder) MTTASTSQVRQNYHQDSEAAINRQINLELYASYVYLSMSYYFDRDDVALKNFAKYFLHQSHEEREHAEKLMKLQNQRGGRIFLQDIKKPDCDDWESGLNAMECALHLEKNVNQSLLELHKLATDKNDSGHGYSYGAFDYPHLCDFIETHYLNEQVKAIKELGDHVTNLRKMGAPESGLAEYLFDKHTLGDSDNES | – | 71.2 nM |
| huHF-TPP1 (AB loop) (designed binder, not shown: small tags and cut ends) MTTASTSQVRQNYHQDSEAAINRQINLELYASYVYLSMSYYFDRDDSGQYASYHCWCWRDPGRSGGSKVALKNFAKYFLHQSHEEREHAEKLMKLQNQRGGRIFLQDIKKPDCDDWESGLNAMECALHLEKNVNQSLLELHKLATDKNDPHLCDFIETHYLNEQVKAIKELGDHVTNLRKMGAPESGLAEYLFDKHTLGDSDNES | 72.1 nM | – |
